Assay results published in patent US20250388881A1, “METHOD FOR IMPROVING THERMOSTABILITY OF PHYTASE, MUTANT AND USE” (priority 2022, published 2025).

Key:
[1] = tested on: O=P(O)(O)O[C@H]1[C@H](OP(=O)(O)O)[C@@H](OP(=O)(O)O)[C@H](OP(=O)(O)O)[C@@H](OP(=O)(O)O)[C@H]1OP(=O)(O)O; assay: Determination of dynamic parameters on sodium phytate: mutant G101C/V116C; assay type: biochemical, Yersinia intermedia; details: other: G101C/V116C, 37° C., pH 5.5, sodium phytate 0.05 to 1.00 mM
[2] = tested on: O=P(O)(O)O[C@H]1[C@H](OP(=O)(O)O)[C@@H](OP(=O)(O)O)[C@H](OP(=O)(O)O)[C@@H](OP(=O)(O)O)[C@H]1OP(=O)(O)O; assay: Determination of dynamic parameters on sodium phytate: mutant G365D; assay type: biochemical, Yersinia intermedia; details: other: G365D, 37° C., pH 5.5, sodium phytate 0.05 to 1.00 mM
[3] = tested on: O=P(O)(O)O[C@H]1[C@H](OP(=O)(O)O)[C@@H](OP(=O)(O)O)[C@H](OP(=O)(O)O)[C@@H](OP(=O)(O)O)[C@H]1OP(=O)(O)O; assay: Determination of dynamic parameters on sodium phytate: mutant E282L; assay type: biochemical, Yersinia intermedia; details: other: E282L, 37° C., pH 5.5, sodium phytate 0.05 to 1.00 mM
[4] = target: Yersinia intermedia phytase APPAmut4 (SEQ ID NO: 1) mutant A147C/Y268C (Yersinia intermedia, UniProt Q000T0, A170C/A346L/M382L/V109D/Y291C/Y74E); assay: Determination of dynamic parameters on sodium phytate: mutant A147C/Y268C; assay type: biochemical; details: 37° C., pH 5.5, sodium phytate 0.05 to 1.00 mM
[5] = target: Yersinia intermedia phytase APPAmut4 (parent), SEQ ID NO: 1 (Yersinia intermedia, UniProt Q000T0, A346L/M382L/V109D/Y74E); assay: Determination of dynamic parameters on sodium phytate: phytase APPAmut4; assay type: biochemical; details: 37° C., pH 5.5, sodium phytate 0.05 to 1.00 mM
[6] = target: Yersinia intermedia phytase APPAmut4 (SEQ ID NO: 1) mutant G65R (Yersinia intermedia, UniProt Q000T0, A346L/G88R/M382L/V109D/Y74E); assay: Determination of dynamic parameters on sodium phytate: mutant G65R; assay type: biochemical; details: 37° C., pH 5.5, sodium phytate 0.05 to 1.00 mM
[7] = tested on: O=P(O)(O)O[C@H]1[C@H](OP(=O)(O)O)[C@@H](OP(=O)(O)O)[C@H](OP(=O)(O)O)[C@@H](OP(=O)(O)O)[C@H]1OP(=O)(O)O; assay: Determination of dynamic parameters on sodium phytate: mutant R271C/E413C; assay type: biochemical, Yersinia intermedia; details: other: R271C/E413C, 37° C., pH 5.5, sodium phytate 0.05 to 1.00 mM
[8] = tested on: O=P(O)(O)O[C@H]1[C@H](OP(=O)(O)O)[C@@H](OP(=O)(O)O)[C@H](OP(=O)(O)O)[C@@H](OP(=O)(O)O)[C@H]1OP(=O)(O)O; assay: Determination of dynamic parameters on sodium phytate: mutant A57C/A103C; assay type: biochemical, Yersinia intermedia; details: other: A57C/A103C, 37° C., pH 5.5, sodium phytate 0.05 to 1.00 mM
[9] = tested on: O=P(O)(O)O[C@H]1[C@H](OP(=O)(O)O)[C@@H](OP(=O)(O)O)[C@H](OP(=O)(O)O)[C@@H](OP(=O)(O)O)[C@H]1OP(=O)(O)O; assay: Determination of dynamic parameters on sodium phytate: phytase APPAmut4; assay type: biochemical, Yersinia intermedia; details: other: APPAmut4, 37° C., pH 5.5, sodium phytate 0.05 to 1.00 mM
[10] = tested on: O=P(O)(O)O[C@H]1[C@H](OP(=O)(O)O)[C@@H](OP(=O)(O)O)[C@H](OP(=O)(O)O)[C@@H](OP(=O)(O)O)[C@H]1OP(=O)(O)O; assay: Determination of dynamic parameters on sodium phytate: mutant R353C/L401C; assay type: biochemical, Yersinia intermedia; details: other: R353C/L401C, 37° C., pH 5.5, sodium phytate 0.05 to 1.00 mM
[11] = tested on: O=P(O)(O)O[C@H]1[C@H](OP(=O)(O)O)[C@@H](OP(=O)(O)O)[C@H](OP(=O)(O)O)[C@@H](OP(=O)(O)O)[C@H]1OP(=O)(O)O; assay: Determination of dynamic parameters on sodium phytate: mutant A147C/Y268C; assay type: biochemical, Yersinia intermedia; details: other: A147C/Y268C, 37° C., pH 5.5, sodium phytate 0.05 to 1.00 mM
[12] = tested on: O=P(O)(O)O[C@H]1[C@H](OP(=O)(O)O)[C@@H](OP(=O)(O)O)[C@H](OP(=O)(O)O)[C@@H](OP(=O)(O)O)[C@H]1OP(=O)(O)O; assay: Determination of dynamic parameters on sodium phytate: mutant G65R; assay type: biochemical, Yersinia intermedia; details: other: G65R, 37° C., pH 5.5, sodium phytate 0.05 to 1.00 mM

Yersinia intermedia phytase APPAmut4 (SEQ ID NO: 1) mutant G101C/V116C (Yersinia intermedia; A346L/G124C/M382L/V109D/V139C/Y74E)
Km [1]: 200 ± 30 µM
Vmax [1]: 2930 µmol/min/mg
kcat [1]: 2230 ± 119 s⁻¹
kcat/Km [1]: 1.11e+07 ± 1.13e+06 M⁻¹ s⁻¹

Yersinia intermedia phytase APPAmut4 (SEQ ID NO: 1) mutant G365D (Yersinia intermedia; A346L/G388D/M382L/V109D/Y74E)
Km [2]: 140 ± 20 µM
Vmax [2]: 2410 µmol/min/mg
kcat [2]: 1830 ± 58 s⁻¹
kcat/Km [2]: 1.32e+07 ± 1.15e+06 M⁻¹ s⁻¹

Yersinia intermedia phytase APPAmut4 (SEQ ID NO: 1) mutant E282L (Yersinia intermedia; A346L/E305L/M382L/V109D/Y74E)
Km [3]: 150 ± 20 µM
Vmax [3]: 2300 µmol/min/mg
kcat [3]: 1750 ± 67 s⁻¹
kcat/Km [3]: 1.13e+07 ± 967000 M⁻¹ s⁻¹

O=P(O)(O)O[C@H]1[C@H](OP(=O)(O)O)[C@@H](OP(=O)(O)O)[C@H](OP(=O)(O)O)[C@@H](OP(=O)(O)O)[C@H]1OP(=O)(O)O [sodium phytate]
kcat/Km [4]: 1.0823e+07 M⁻¹ s⁻¹
kcat/Km [5]: 1.2322e+07 M⁻¹ s⁻¹
kcat/Km [6]: 9.009e+06 M⁻¹ s⁻¹

Yersinia intermedia phytase APPAmut4 (SEQ ID NO: 1) mutant R271C/E413C (Yersinia intermedia; A346L/E436C/M382L/R294C/V109D/Y74E)
Km [7]: 180 ± 30 µM
Vmax [7]: 3180 µmol/min/mg
kcat [7]: 2410 ± 154 s⁻¹
kcat/Km [7]: 1.34e+07 ± 1.54e+06 M⁻¹ s⁻¹

Yersinia intermedia phytase APPAmut4 (SEQ ID NO: 1) mutant A57C/A103C (Yersinia intermedia; A126C/A346L/A80C/M382L/V109D/Y74E)
Km [8]: 180 ± 30 µM
Vmax [8]: 2840 µmol/min/mg
kcat [8]: 2160 ± 130 s⁻¹
kcat/Km [8]: 1.21e+07 ± 1.37e+06 M⁻¹ s⁻¹

Yersinia intermedia phytase APPAmut4 (parent), SEQ ID NO: 1 (Yersinia intermedia; A346L/M382L/V109D/Y74E)
Km [9]: 140 ± 30 µM
Vmax [9]: 2270 µmol/min/mg
kcat [9]: 1720 ± 72 s⁻¹
kcat/Km [9]: 1.23e+07 ± 1.58e+06 M⁻¹ s⁻¹

Yersinia intermedia phytase APPAmut4 (SEQ ID NO: 1) mutant R353C/L401C (Yersinia intermedia; A346L/L424C/M382L/R376C/V109D/Y74E)
Km [10]: 200 ± 20 µM
Vmax [10]: 3400 µmol/min/mg
kcat [10]: 2580 ± 124 s⁻¹
kcat/Km [10]: 1.29e+07 ± 955000 M⁻¹ s⁻¹

Yersinia intermedia phytase APPAmut4 (SEQ ID NO: 1) mutant A147C/Y268C (Yersinia intermedia; A170C/A346L/M382L/V109D/Y291C/Y74E)
Km [11]: 220 ± 30 µM
Vmax [11]: 3140 µmol/min/mg
kcat [11]: 2380 ± 124 s⁻¹
kcat/Km [11]: 1.08e+07 ± 1.02e+06 M⁻¹ s⁻¹

Yersinia intermedia phytase APPAmut4 (SEQ ID NO: 1) mutant G65R (Yersinia intermedia; A346L/G88R/M382L/V109D/Y74E)
Km [12]: 220 ± 40 µM
Vmax [12]: 2630 µmol/min/mg
kcat [12]: 2000 ± 77 s⁻¹
kcat/Km [12]: 9.01e+06 ± 992000 M⁻¹ s⁻¹
